We go through 13 molecules from patent publication US12331106B2, “Anti-angiopoietin-2 antibodies that induce Tie2 activation” (Institute for Basic Science, priority 2018, dated 2025).

T1: hAng2 (Homo sapiens, UniProt O15123)
T1 sequence (O15123 19-496): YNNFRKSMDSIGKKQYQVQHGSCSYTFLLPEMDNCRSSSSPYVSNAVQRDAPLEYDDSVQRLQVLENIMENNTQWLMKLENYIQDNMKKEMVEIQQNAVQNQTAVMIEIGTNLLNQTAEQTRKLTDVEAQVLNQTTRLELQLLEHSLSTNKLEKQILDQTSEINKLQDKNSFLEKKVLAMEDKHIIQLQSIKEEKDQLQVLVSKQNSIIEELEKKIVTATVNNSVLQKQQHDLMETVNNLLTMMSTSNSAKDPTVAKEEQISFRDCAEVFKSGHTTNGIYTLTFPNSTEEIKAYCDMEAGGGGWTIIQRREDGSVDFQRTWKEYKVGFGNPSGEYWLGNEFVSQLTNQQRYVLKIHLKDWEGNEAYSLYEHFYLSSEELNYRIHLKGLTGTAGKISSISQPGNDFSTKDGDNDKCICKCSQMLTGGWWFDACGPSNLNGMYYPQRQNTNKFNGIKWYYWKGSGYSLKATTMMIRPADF

B1: 2C8H11G4: human IgG4 class antibody of 2C8H11 (antibody, V domains shown)
VH: QVQLVQSGAEVKKPGASVKVSCKASGYTFTSYWMHWVRQAPGQGLEWMGMIDPSDSETRLNQKFKDRVTMTRDTSTSTVYMELSSLRSEDTAVYYCARRFYYGSDWYFDVWGQGTLVTVSS
VL: DIQLTQSPSFLSASVGDRVTITCKASQDVGTAVAWYQQKPGKAPKLLIYWASTRHTGVPSRFSGSGSGTEFTLTISSLQPEDFATYYCQQYSSYPLTFGQGTKVEIK
B2: 4B9H11G4: human IgG4 class antibody of 4B9H11 (antibody, V domains shown)
VH: QVQLVESGGGLVKPGGSLRLSCAASGFTFSDYYMYWIRQAPGKGLEWVSTISVGGSFTYYPDSVKGRFTISRDNAKNSLYLQMNSLRAEDTAVYYCARDWGLRPWFVYWGQGTLVTVSS
VL: DIQMTQSPSSLSASVGDRVTITCKASQDVSTAVAWYQQKPGKAPKLLIYWASTRHTGVPSRFSGSGSGTDFTLTISSLQPEDFATYYCQQHYSTPPTFGQGTKVEIK
B3: 2C8H43: humanized anti-Ang2 antibody from mouse 2C8; VH SEQ ID NO: 107, VL SEQ ID NO: 108 (antibody, V domains shown)
VH: QVQLVQSGAEVKKPGASVKVSCKASGYSFTSYWMHWVKQAPGQGLEWIGMIDPSDSETRLNQKFKDKASMTRDTSTSTVYMELSSLRSEDTAVYYCARRFYYGSDWYFDVWGQGTLVTVSS
VL: DIQLTQSPSFLSASVGDRVSITCKASQDVGTAVAWYQQKPGKAPKLLIYWASTRHTGVPDRFSGSGSGTEFTLTISSLQPEDFADYFCQQYSSYPLTFGQGTKVEIK
modifications: VH; VL
B4: 2C8H32: humanized anti-Ang2 antibody from mouse 2C8; VH SEQ ID NO: 83, VL SEQ ID NO: 84 (antibody, V domains shown)
VH: QVQLVQSGAEVKKPGASVKVSCKASGYSFTSYWMHWVRQAPGQGLEWIGMIDPSDSETRLNQKFKDKASMTRDTSTSTVYMELSSLRSEDTAVYYCARRFYYGSDWYFDVWGQGTLVTVSS
VL: DIQLTQSPSFLSASVGDRVSITCKASQDVGTAVAWYQQKPGKAPKLLIYWASTRHTGVPDRFSGSGSGTEFTLTISSLQPEDFATYYCQQYSSYPLTFGQGTKVEIK
modifications: VH; VL
B5: 2C8H23: humanized anti-Ang2 antibody from mouse 2C8; VH SEQ ID NO: 99, VL SEQ ID NO: 100 (antibody, V domains shown)
VH: QVQLVQSGAEVKKPGASVKVSCKASGYSFTSYWMHWVRQAPGQGLEWIGMIDPSDSETRLNQKFKDRVTMTRDTSTSTVYMELSSLRSEDTAVYYCARRFYYGSDWYFDVWGQGTLVTVSS
VL: DIQLTQSPSFLSASVGDRVSITCKASQDVGTAVAWYQQKPGKAPKLLIYWASTRHTGVPDRFSGSGSGTEFTLTISSLQPEDFADYFCQQYSSYPLTFGQGTKVEIK
modifications: VH; VL
B6: 2C8H52: humanized anti-Ang2 antibody from mouse 2C8; VH SEQ ID NO: 91, VL SEQ ID NO: 92 (antibody, V domains shown)
VH: QVQLVQSGAEVKKPGASVKVSCKASGYSFTSYWMHWVKQAPGQGLEWIGMIDPSDSETRLNQKFKDKASLTVDTSTSTVYMELSSLRSEDTAVYYCARRFYYGSDWYFDVWGQGTLVTVSS
VL: DIQLTQSPSFLSASVGDRVSITCKASQDVGTAVAWYQQKPGKAPKLLIYWASTRHTGVPDRFSGSGSGTEFTLTISSLQPEDFATYYCQQYSSYPLTFGQGTKVEIK
modifications: VH; VL
B7: 2C8H12: humanized anti-Ang2 antibody from mouse 2C8; VH SEQ ID NO: 75, VL SEQ ID NO: 76 (antibody, V domains shown)
VH: QVQLVQSGAEVKKPGASVKVSCKASGYTFTSYWMHWVRQAPGQGLEWMGMIDPSDSETRLNQKFKDRVTMTRDTSTSTVYMELSSLRSEDTAVYYCARRFYYGSDWYFDVWGQGTLVTVSS
VL: DIQLTQSPSFLSASVGDRVSITCKASQDVGTAVAWYQQKPGKAPKLLIYWASTRHTGVPDRFSGSGSGTEFTLTISSLQPEDFATYYCQQYSSYPLTFGQGTKVEIK
modifications: VH; VL
B8: 2C8H21: humanized anti-Ang2 antibody from mouse 2C8; VH SEQ ID NO: 59, VL SEQ ID NO: 60 (antibody, V domains shown)
VH: QVQLVQSGAEVKKPGASVKVSCKASGYSFTSYWMHWVRQAPGQGLEWIGMIDPSDSETRLNQKFKDRVTMTRDTSTSTVYMELSSLRSEDTAVYYCARRFYYGSDWYFDVWGQGTLVTVSS
VL: DIQLTQSPSFLSASVGDRVTITCKASQDVGTAVAWYQQKPGKAPKLLIYWASTRHTGVPSRFSGSGSGTEFTLTISSLQPEDFATYYCQQYSSYPLTFGQGTKVEIK
modifications: VH; VL
B9: 2C8H53: humanized anti-Ang2 antibody from mouse 2C8; VH SEQ ID NO: 111, VL SEQ ID NO: 112 (antibody, V domains shown)
VH: QVQLVQSGAEVKKPGASVKVSCKASGYSFTSYWMHWVKQAPGQGLEWIGMIDPSDSETRLNQKFKDKASLTVDTSTSTVYMELSSLRSEDTAVYYCARRFYYGSDWYFDVWGQGTLVTVSS
VL: DIQLTQSPSFLSASVGDRVSITCKASQDVGTAVAWYQQKPGKAPKLLIYWASTRHTGVPDRFSGSGSGTEFTLTISSLQPEDFADYFCQQYSSYPLTFGQGTKVEIK
modifications: VH; VL
B10: 2C8H22: humanized anti-Ang2 antibody from mouse 2C8; VH SEQ ID NO: 79, VL SEQ ID NO: 80 (antibody, V domains shown)
VH: QVQLVQSGAEVKKPGASVKVSCKASGYSFTSYWMHWVRQAPGQGLEWIGMIDPSDSETRLNQKFKDRVTMTRDTSTSTVYMELSSLRSEDTAVYYCARRFYYGSDWYFDVWGQGTLVTVSS
VL: DIQLTQSPSFLSASVGDRVSITCKASQDVGTAVAWYQQKPGKAPKLLIYWASTRHTGVPDRFSGSGSGTEFTLTISSLQPEDFATYYCQQYSSYPLTFGQGTKVEIK
modifications: VH; VL
B11: 2C8H42: humanized anti-Ang2 antibody from mouse 2C8; VH SEQ ID NO: 87, VL SEQ ID NO: 88 (antibody, V domains shown)
VH: QVQLVQSGAEVKKPGASVKVSCKASGYSFTSYWMHWVKQAPGQGLEWIGMIDPSDSETRLNQKFKDKASMTRDTSTSTVYMELSSLRSEDTAVYYCARRFYYGSDWYFDVWGQGTLVTVSS
VL: DIQLTQSPSFLSASVGDRVSITCKASQDVGTAVAWYQQKPGKAPKLLIYWASTRHTGVPDRFSGSGSGTEFTLTISSLQPEDFATYYCQQYSSYPLTFGQGTKVEIK
modifications: VH; VL
B12: 2C8H13: humanized anti-Ang2 antibody from mouse 2C8; VH SEQ ID NO: 95, VL SEQ ID NO: 96 (antibody, V domains shown)
VH: QVQLVQSGAEVKKPGASVKVSCKASGYTFTSYWMHWVRQAPGQGLEWMGMIDPSDSETRLNQKFKDRVTMTRDTSTSTVYMELSSLRSEDTAVYYCARRFYYGSDWYFDVWGQGTLVTVSS
VL: DIQLTQSPSFLSASVGDRVSITCKASQDVGTAVAWYQQKPGKAPKLLIYWASTRHTGVPDRFSGSGSGTEFTLTISSLQPEDFADYFCQQYSSYPLTFGQGTKVEIK
modifications: VH; VL
B13: 2C8H33: humanized anti-Ang2 antibody from mouse 2C8; VH SEQ ID NO: 103, VL SEQ ID NO: 104 (antibody, V domains shown)
VH: QVQLVQSGAEVKKPGASVKVSCKASGYSFTSYWMHWVRQAPGQGLEWIGMIDPSDSETRLNQKFKDKASMTRDTSTSTVYMELSSLRSEDTAVYYCARRFYYGSDWYFDVWGQGTLVTVSS
VL: DIQLTQSPSFLSASVGDRVSITCKASQDVGTAVAWYQQKPGKAPKLLIYWASTRHTGVPDRFSGSGSGTEFTLTISSLQPEDFADYFCQQYSSYPLTFGQGTKVEIK
modifications: VH; VL

The target in one assay is T1, hAng2. Kind of assay: OCTET affinity of humanized anti-Ang2 antibodies against hAng2. It is filed as binding. To be noted: IgG4 class antibodies. How it is done: The affinity of humanized anti-Ang2 antibody against hAng2 was measured using OCTET® system (ForteBio). Specifically, buffer and samples were measured in total 200 μl/well using Black 96-well plates (96 well F-type black plates, Greiner). The biosensor used for affinity measurements was hydrated for 10 min before measurement with AR2G tip (ForteBio OCTET®). After the hydration, humanized anti-Ang2 antibody was diluted in 10 mM sodium acetate, pH 6.0 buffer at a concentration of 10 μg/ml, fixed on AR2G biosensor, and blocked with 1M ethanolamine. The recombinant hAng2 was diluted to 50, 25, 12.5, 6.25, 3.125, and 0 nM with 1× kinetic buffer, and subjected to association for 300 sec and dissociation for 900 sec. For affinity measurement (KD), association rate (K-on) and dissociation rate (K-off) were analyzed by binding curve (global) and fitted to 1:1 binding model using OCTET® data analysis v9.0.0.10 program.
The affinities of humanized 2C8 antibodies to hAng2 were in Table 15.
As for B1, the “Kdis” value is 4.35e-06 s⁻¹ and the “Kon” value worked out at 415000 M⁻¹ s⁻¹.

For the molecule B2, the “Kdis” value was 3.46e-05 s⁻¹ and the “Kon” value worked out at 432000 M⁻¹ s⁻¹.

The same assay, now with this note: IgG4 class antibodies; statement in words.
Consider B1, for which the “affinities to hAng2 antigen” value is on record as “subnanomolar high affinities”.

With B2, the “affinities to hAng2 antigen” value is reported as “subnanomolar high affinities”.

The same assay, now with this note: OCTET, antibody fixed on AR2G biosensor, hAng2 50-0 nM, 1:1 binding model.
B3: the Kdis was 2.65e-05 s⁻¹ and the Kon is 71100 M⁻¹ s⁻¹.

As to B4, the Kdis amounted to 1.49e-05 s⁻¹ and the Kon is 75700 M⁻¹ s⁻¹.

Turning to B5, the Kdis worked out at 2.28e-05 s⁻¹ and the Kon worked out at 79500 M⁻¹ s⁻¹.

Turning to B6, the Kdis amounted to 1.99e-05 s⁻¹ and the Kon amounted to 81900 M⁻¹ s⁻¹.

B7: the Kdis came out at 1.33e-05 s⁻¹ and the Kon was found to be 95200 M⁻¹ s⁻¹.

With B8, the Kdis stood at 1.5e-05 s⁻¹ and the Kon was determined as 111000 M⁻¹ s⁻¹.

In turn, B9 had a Kdis of 3.11e-05 s⁻¹ and a Kon of 80900 M⁻¹ s⁻¹.

The molecule B10 registered a Kdis of 6.84e-06 s⁻¹ and a Kon of 59600 M⁻¹ s⁻¹.

In turn, B11 gave a Kdis of 3.07e-05 s⁻¹ and a Kon of 80600 M⁻¹ s⁻¹.

Turning to B12, the Kdis is 2.77e-05 s⁻¹ and the Kon was 113000 M⁻¹ s⁻¹.

B13 gave a Kdis of 3.99e-06 s⁻¹ and a Kon of 89600 M⁻¹ s⁻¹.
